One molecule from patent US20240327516A1 (Zymeworks, published 2024) can be followed below.

Experiment [1] deals with T1, CD3 on CD3+ Jurkat cells and primary human T cells (human, UniProt P07766 23-207).
T1 construct: whole, on cells; also called native CD3; CD3ε
Put plainly: flow cytometry on primary human T cells; reference v31805. In general terms: Flow cytometry measures light scatter and fluorescence of single cells or particles in a stream.

The target in experiment [2] is T1, CD3 on CD3+ Jurkat cells and primary …. Put plainly: whole-cell flow cytometry on primary human T cells, apparent affinity.
Experiment [3] deals with T2, mesothelin (MSLN) on MSLN-expressing tumor cells (human, UniProt Q13421 296-598).
T2 construct: whole, on cells; also called native MSLN; MSLN+ H226 cells
Put plainly: whole-cell flow cytometry on OVCAR-3 cells, apparent affinity.

Experiment [4] concerns the target T3, Recombinant MSLN Fc fusion protein (R&D: 3265-MS) (UniProt Q13421 296-580).
T3 construct: also called recombinant MSLN fusion protein
Put plainly: SPR; reference v31805. (In general: SPR reads the build-up and loss of mass on a sensor chip optically.)

Experiment [5] concerns the target T4, Recombinant CD3epsilon/delta Fc fusion protein (Sino Biological) (UniProt P07766 23-126; P04234 22-105).
T4 construct: also called recombinant CD3 fusion protein
Put plainly: SPR; reference v31805.

The target of experiment [6] is T3, Recombinant MSLN Fc fusion protein …. Kind of experiment: assay not given; matches Table 15 (SPR); reference v31805.
The target of experiment [7] is T4, Recombinant CD3epsilon/delta Fc fusion …. The experiment is described as above.
The target in experiment [8] is T2, mesothelin (MSLN) on MSLN-expressing …. Kind of experiment: cell-based or functional assay.
For experiment [9], the target named is T1, CD3 on CD3+ Jurkat cells and primary …. Put plainly: flow cytometry on primary human T cells; reference v29191.
Experiment [10] has as its target T4, Recombinant CD3epsilon/delta Fc fusion …. Put plainly: SPR, BioRad ProteOn XPR36, 25 C, CD3 epsilon/delta-Fc captured on anti-Fc chip.
Experiment [11] deals with T3, Recombinant MSLN Fc fusion protein …. Put plainly: SPR, BioRad ProteOn XPR36, 25 C, MSLN-Fc captured on anti-Fc chip.
The target of experiment [12] is T1, CD3 on CD3+ Jurkat cells and primary …. Kind of experiment: flow cytometry on human pan T cells, CD4+ and CD8+ cells together (Alexa Fluor 647 anti-IgG-Fc, MFI).
Experiment [13] has the same target. Put plainly: flow cytometry on human pan T cells, CD8+ gate (Alexa Fluor 647 anti-IgG-Fc, MFI).
Experiment [14] shares this target. Kind of experiment: flow cytometry on human pan T cells, CD4+ gate (Alexa Fluor 647 anti-IgG-Fc, MFI).
The target in experiment [15] is T2, mesothelin (MSLN) on MSLN-expressing …. Kind of experiment: flow cytometry on MSLN+ OVCAR-3 cells (Alexa Fluor 647 anti-IgG-Fc, MFI).

The term EC50 denotes the concentration that produces a half-maximal response. Broadly, the Kd is the concentration at which binding is half-saturated. One may read the koff as the first-order rate constant of dissociation. By kon is commonly meant a measure of how fast the partners come together. In general, EC50 (read off the curve) refers to the concentration needed to bring the measured effect to its halfway point. Low readings indicate a more potent agent, high ones a less potent agent.

T2 sequence (Q13421 other isoform, or with tags, fused parts or gaps limits assumed): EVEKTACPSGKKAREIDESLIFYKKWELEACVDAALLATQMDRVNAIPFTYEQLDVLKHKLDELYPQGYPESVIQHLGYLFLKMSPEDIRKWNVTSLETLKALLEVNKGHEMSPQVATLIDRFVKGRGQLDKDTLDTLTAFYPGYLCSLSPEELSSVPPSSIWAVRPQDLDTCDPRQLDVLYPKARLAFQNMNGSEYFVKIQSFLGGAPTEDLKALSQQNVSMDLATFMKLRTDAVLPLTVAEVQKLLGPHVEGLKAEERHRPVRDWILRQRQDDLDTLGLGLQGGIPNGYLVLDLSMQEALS
T4 sequence (P07766 23-126, stated change not applied, chain 1 of 2): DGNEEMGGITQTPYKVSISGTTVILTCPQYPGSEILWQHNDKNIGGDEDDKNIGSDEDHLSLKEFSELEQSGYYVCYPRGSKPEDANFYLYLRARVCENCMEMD
T4 sequence (P04234 22-105, stated change not applied, chain 2 of 2): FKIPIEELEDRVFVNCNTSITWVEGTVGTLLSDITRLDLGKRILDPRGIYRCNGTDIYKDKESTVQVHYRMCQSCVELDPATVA
T3 sequence (Q13421 other isoform, or with tags, fused parts or gaps limits assumed): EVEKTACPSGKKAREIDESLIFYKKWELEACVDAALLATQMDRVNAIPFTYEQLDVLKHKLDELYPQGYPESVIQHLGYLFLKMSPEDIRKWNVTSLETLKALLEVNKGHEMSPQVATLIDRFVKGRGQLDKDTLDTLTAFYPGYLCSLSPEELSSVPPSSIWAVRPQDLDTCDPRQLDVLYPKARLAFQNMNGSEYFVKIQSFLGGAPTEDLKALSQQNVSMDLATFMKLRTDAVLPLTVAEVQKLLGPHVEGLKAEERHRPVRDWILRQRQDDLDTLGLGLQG
T1 sequence (P07766 23-207): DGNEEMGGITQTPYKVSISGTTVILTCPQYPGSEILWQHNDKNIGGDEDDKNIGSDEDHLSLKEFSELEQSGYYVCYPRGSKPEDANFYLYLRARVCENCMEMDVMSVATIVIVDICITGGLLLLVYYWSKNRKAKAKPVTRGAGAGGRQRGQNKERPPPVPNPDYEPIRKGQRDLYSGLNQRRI

B1: v32523, trivalent and bispecific antibody construct [MSLN (2 scFv) x CD3 (1 Fab)] (bispecific antibody, human IgG1, lambda, L234A L235A)
heavy 1: not shown
heavy 2: DIQMTQSPSSLSASVGDRVTITCSASSSVSYMHWYQQKSGKAPKLLIYDTSKLASGVPSRFSGSGSGTDFTLTISSLQPEDFATYYCQQWSGYPLTFGQGTKLEIKGGGGSGGGGSGGGGSGGGGSQVQLVQSGAEVKKPGASVKVSCKASGYSFTGYTMNWVRQAPGQGLEWMGLITPYNGASSYNQKFRGKATMTVDTSTSTVYMELSSLRSEDTAVYYCARGGYDGRGFDYWGQGTLVTVSSAAEPKSSDKTHTCPPCPAPEAAGGPSVFLFPPKPKDTLMISRTPEVTCVVVSVSHEDPEVKFNWYVDGVEVHNAKTKPREEQYNSTYRVVSVLTVLHQDWLNGKEYKCKVSNKALPAPIEKTISKAKGQPREPQVYVLPPSRDELTKNQVSLLCLVKGFYPSDIAVEWESNGQPENNYLTWPPVLDSDGSFFLYSKLTVDKSRWQQGNVFSCSVMHEALHNHYTQKSLSLSPG
light: NFMLTQPHSVSESPGKTVTISCKRNTGNIGSNYVNWYQQHEGSSPTTIIYRNDKRPDGVSDRFSGSIDRSSKSASLTISNLKTEDEADYFCQSYSSGFIFGGGTKLTVLGQPKAAPSVTLFPPSSEELQANKATLVCLISDFYPGAVTVAWKADSSPVKAGVETTTPSKQSNNKYAASSYLSLTPEQWKSHRSYSCQVTHEGSTVEKTVAPTECS
notes: also called construct v32523; stability engineered construct
For the molecule B1, the “fold lower apparent affinity vs v31805” value in [1] is about 8.6 fold. For the same molecule, the concentration giving a half-maximal response (EC50) is 50.5 nM in experiment [2] and 2.8 nM in experiment [3]. The “fold lower affinity vs v31805” value is 32 fold in experiment [4], 53 fold in experiment [5], about 30 fold in experiment [6] and about 50 fold in experiment [7]. Also, the “IC50 of T cell-dependent cytotoxicity on HCT116 cells (pan T cells, E:T 5:1, 72 h)” value in experiment [8] came out at 1.1 pM. Also, the “fold lower apparent affinity vs v29191” value in [9] was about 2.7 fold. Besides, the Kd in experiment [10] was 40.1 nM; in experiment [11], 1.01 nM. Besides, the koff in [10] worked out at 0.0112 s⁻¹; in [11], 0.000719 s⁻¹. The kon in [10] stood at 279000 M⁻¹ s⁻¹; in experiment [11], 714000 M⁻¹ s⁻¹. For the same molecule, the concentration for a half-maximal effect (EC50 (read off the curve)) in [12] is about 60 nM; in [13], about 80 nM; in experiment [14], about 60 nM; in experiment [15], about 3 nM.
